Assay [1] has as its target isolated nucleotide-binding domain of TmrB (NBD of TmrB) (Thermus thermophilus HB27, UniProt Q72J04). Kind of assay: SEC. (SEC sorts molecules by how far they enter the pores of the column.)
The target of assay [2] is T1, Thermus thermophilus multidrug resistance proteins A and B (TmrAB), wild type heterodimer (Thermus thermophilus, UniProt Q72J05;Q72J04).
T1 sequence 1: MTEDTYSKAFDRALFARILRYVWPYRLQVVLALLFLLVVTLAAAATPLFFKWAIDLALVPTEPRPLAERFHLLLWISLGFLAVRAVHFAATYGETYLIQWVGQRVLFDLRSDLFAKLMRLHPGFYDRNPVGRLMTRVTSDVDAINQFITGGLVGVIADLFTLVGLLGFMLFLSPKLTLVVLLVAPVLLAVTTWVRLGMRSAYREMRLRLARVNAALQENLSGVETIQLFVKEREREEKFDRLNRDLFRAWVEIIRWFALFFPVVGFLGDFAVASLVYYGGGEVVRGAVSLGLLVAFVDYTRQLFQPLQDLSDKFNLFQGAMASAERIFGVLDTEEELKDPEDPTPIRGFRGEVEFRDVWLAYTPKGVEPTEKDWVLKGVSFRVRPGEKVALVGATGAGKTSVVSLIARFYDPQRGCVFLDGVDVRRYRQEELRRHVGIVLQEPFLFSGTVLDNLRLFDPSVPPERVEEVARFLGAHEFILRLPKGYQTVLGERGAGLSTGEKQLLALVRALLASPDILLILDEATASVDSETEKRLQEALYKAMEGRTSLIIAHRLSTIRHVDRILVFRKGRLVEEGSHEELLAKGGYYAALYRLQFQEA
T1 sequence 2: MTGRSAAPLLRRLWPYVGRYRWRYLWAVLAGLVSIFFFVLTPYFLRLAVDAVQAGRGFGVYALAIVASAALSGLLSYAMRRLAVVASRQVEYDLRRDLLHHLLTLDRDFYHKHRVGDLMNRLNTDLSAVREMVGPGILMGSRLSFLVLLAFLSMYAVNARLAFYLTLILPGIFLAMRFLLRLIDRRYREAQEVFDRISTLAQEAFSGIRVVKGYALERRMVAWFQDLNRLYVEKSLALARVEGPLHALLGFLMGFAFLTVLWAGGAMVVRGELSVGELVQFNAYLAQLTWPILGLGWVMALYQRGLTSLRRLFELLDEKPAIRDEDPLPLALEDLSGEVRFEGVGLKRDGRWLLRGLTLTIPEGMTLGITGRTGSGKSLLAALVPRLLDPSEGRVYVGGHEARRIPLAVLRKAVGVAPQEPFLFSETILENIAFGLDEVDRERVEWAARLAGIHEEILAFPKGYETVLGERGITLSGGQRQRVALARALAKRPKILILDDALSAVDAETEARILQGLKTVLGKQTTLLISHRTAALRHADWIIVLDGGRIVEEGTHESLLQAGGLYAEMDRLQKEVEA
The assay is described as follows: fluorescence polarisation. A general note: Polarisation of emitted light reports the rotation of a fluorescent probe.

Results on two molecules are retold here after publication PMC7612745 (Nature, 2019).

Where no end group is shown, it is not given here.

B1: Nb9F10, TmrAB-specific nanobody (alpaca) (VHH)
VHH: QLQLVESGGGLVQPGDSLRLSCAVSGSALDYNAIGWFRQAPGKEREGVACISKITGNTAYADSVKGRFTISRDNAKNTVHLQMNSLKPEDTAVYYCATVTAVLLPGRCVPGKYWGQGTPVTVSS
Consider B1, for which, in assay [1], the binding result was “binds”.

B2: fluorescent peptide RRY(C^Fluorescein)KSTEL (C4F) (peptide)
peptide: RRYC(fluorescein)KSTEL
Consider B2, for which the binding result in assay [2] is on record as “binds”.
